Assay results as given in patent publication US20220204624A1 (Xencor, published 2022).
Positions count from the first letter of the chain named.

Experiments:
[1] = target: human PD-1 (human, UniProt Q15116 25-167, limits assumed); experiment: Octet (BLI), global fit, 1:1 binding model
[2] = target: T1, cynomolgus PD-1 (cynomolgus, UniProt B0LAJ3 25-170); experiment: Octet (BLI), global fit, 1:1 binding model
T1 construct: also called cyno PD-1; not shown: carrier of the soluble construct (His tag or Fc)
T1 sequence (B0LAJ3 entry or part of it limits assumed, form in doubt): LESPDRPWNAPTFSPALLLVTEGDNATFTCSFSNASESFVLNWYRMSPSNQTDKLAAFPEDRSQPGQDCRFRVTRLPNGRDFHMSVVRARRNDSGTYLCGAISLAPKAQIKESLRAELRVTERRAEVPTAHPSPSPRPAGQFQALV

[3] = target: human CTLA-4 (human, UniProt P16410 36-161, limits assumed); experiment: Octet (BLI), global fit, 1:1 binding model
Chain of human CTLA-4 (P16410 36-161 limits assumed): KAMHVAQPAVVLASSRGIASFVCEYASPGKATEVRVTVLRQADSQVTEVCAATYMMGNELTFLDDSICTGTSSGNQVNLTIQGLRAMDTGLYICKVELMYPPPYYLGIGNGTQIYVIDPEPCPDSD

[4] = target: cynomolgus CTLA-4 (cynomolgus, UniProt G7PL88 36-161); experiment: Octet (BLI), global fit, 1:1 binding model
Chain of cynomolgus CTLA-4 (G7PL88 entry or part of it limits assumed, form in doubt): as the sequence (P16410 36-161 limits assumed) above, with S14N, L106M counted along it

[5] = target: T2, His-tagged human PD-1 (human, UniProt Q15116 25-167, limits assumed); experiment: Octet, His-tagged PD-1 as analyte
T2 construct: also called PD-1-His; huPD-1-His; not shown: histidine tag
T2 sequence (Q15116 25-167 limits assumed): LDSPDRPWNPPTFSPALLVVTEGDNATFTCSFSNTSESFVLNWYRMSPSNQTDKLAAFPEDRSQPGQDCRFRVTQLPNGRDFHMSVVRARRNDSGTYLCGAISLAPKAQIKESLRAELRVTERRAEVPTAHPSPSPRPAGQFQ

[6] = target: T2, His-tagged human PD-1; experiment: Octet, antibody on AHC biosensors, His-tagged PD-1 as analyte
[7] = target: T2, His-tagged human PD-1; experiment: Biacore (SPR), mAb captured on Protein A chip, histidine-tagged human PD-1 as analyte
[8] = target: T2, His-tagged human PD-1; experiment: Octet, antibody on AHC biosensors, His-tagged human PD-1 as analyte

Chain of human PD-1 (Q15116 25-167 limits assumed): as above

B1: XmAb20717 (bispecific antibody)
chain 1: not shown
chain 2: EIVLTQSPATLSASPGERVTLTCRASQSVGNDVAWYQQKPGQAPRLLINYASHRYTGVPDRFTGSGYGTEFTLTISSVQSEDFGVYYCQQDFSSPRTFGGGTKVEIKGKPGSGKPGSGKPGSGKPGSEVQLVESGGGLVKPGGSLRLSCVASGFTFSNYWMNWVRQAPGKGLEWVAEIRLYSNNYATHYAESVKGRFTISRDDSKSTLYLQMNNLKTEDTGVYYCTRYYGNYGGYFDVWGRGTLVTVSSEPKSSDKTHTCPPCPAPPVAGPSVFLFPPKPKDTLMISRTPEVTCVVVDVKHEDPEVKFNWYVDGVEVHNAKTKPREEQYNSTYRVVSVLTVLHQDWLNGKEYKCKVSNKALPAPIEKTISKAKGQPREPQVYTLPPSREQMTKNQVKLTCLVKGFYPSDIAVEWESNGQPENNYKTTPPVLDSDGSFFLYSKLTVDKSRWQQGNVFSCSVLHEALHSHYTQKSLSLSPGK
chain 3: not shown
B1 showed a Kd [1] of 1.4 nM, a Kd [2] of 5.5 nM and a Kd [3] of about 4.1 nM. It also gave a Kd [4] of about 23 nM.

B2: XENP22553 (antibody, V domains shown)
VH: QIQLVQSGSELKKPGASVKVSCKASGYTFTHYGMNWVRQAPGQGLEWMGWINTYTGEPTYADGFTGRFVFSLDTSVSTAYLQISSLKAEDTAVYFCARDYYGSSPYWGQGTLVTVSS
VL: DVLMTQSPDSLAVSLGERATINCKSSQSIVHSNGNTYLEWYQQKPGQSPKLLIYKVSNRFSGVPDRFSGSGSGTDFTLTISSLQAEDVAVYYCFQGSHVPNTFGGGTKVEIK
B2 was tested, and the Kd [5] was about 18 nM, the Kd [6] was 15 to 19 nM and the Kd [7] was 8.6 nM.

B3: XENP26928 (antibody, V domains shown)
VH: B2 VH
VL: B2 VL with N33E
Binder B3 has a Kd [8] of 333 nM.
